In publication PMC12140320, “MeCP2 Lactylation Protects against Ischemic Brain Injury by Transcriptionally Regulating Neuronal Apoptosis”:

B1: human-Pla2g6 mCpG probe (dsDNA)
DNA 1: GCGCATGCGCCCTCCCGCGCCCCTCCCC
DNA 2: GGGGAGGGGCGCGGGAGGGCGCATGCGC
modifications: 5-methyl-dC at CpG, both strands; printed sequence identical to human-Pdcd4 probe (possible error in paper)
B2: human-Pdcd4 mCpG probe (dsDNA)
DNA 1: GCGCATGCGCCCTCCCGCGCCCCTCCCC
DNA 2: GGGGAGGGGCGCGGGAGGGCGCATGCGC
modifications: 5-methyl-dC at CpG, both strands; printed '(5-Methyl dC)CG' read as mCG to match the unmethylated probe

Target: MeCP2 WT (human) (Homo sapiens, UniProt P51608 1-486)
Sequence (P51608 whole entry): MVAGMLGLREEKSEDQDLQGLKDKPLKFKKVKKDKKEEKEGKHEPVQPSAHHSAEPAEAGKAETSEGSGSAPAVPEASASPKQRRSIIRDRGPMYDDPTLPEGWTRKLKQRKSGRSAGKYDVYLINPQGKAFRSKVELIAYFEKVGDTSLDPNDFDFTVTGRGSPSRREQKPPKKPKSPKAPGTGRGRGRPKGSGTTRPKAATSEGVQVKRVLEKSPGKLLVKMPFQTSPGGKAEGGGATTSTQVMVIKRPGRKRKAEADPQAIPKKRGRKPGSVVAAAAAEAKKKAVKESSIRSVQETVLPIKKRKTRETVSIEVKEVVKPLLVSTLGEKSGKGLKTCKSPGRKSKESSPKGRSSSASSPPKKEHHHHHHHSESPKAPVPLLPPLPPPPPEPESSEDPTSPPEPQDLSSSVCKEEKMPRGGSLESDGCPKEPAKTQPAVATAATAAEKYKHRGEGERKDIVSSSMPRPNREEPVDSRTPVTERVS
Experiment: EMSA; 50-100 nM protein; EMSA: 10 mM HEPES pH 7.6, 50 mM KCl, 1 mM EDTA, 0.05% Triton X-100, 5% glycerol, 1 mM DTT; 50-100 nM protein, 2 nM biotin probe; room temperature 30 min; 6% native PAGE, 0.5x TBE, 4 C
Conditions: protein: recombinant; (Ni resin); label: biotin; blunt

Binder | binding result
B1 | binds
B2 | binds
